Assay: yeast display, Sf9 membrane polyspecificity reagent, FACS + sequencing; frameworks hold sequencing errors
Outline: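 Galactose-induced (36–48 hours) yeast carrying a synthetic nanobody display library were exposed to 10% biotinylated, detergent-solubilized Sf9 membrane reagent at 4 °C for 1 hour. FACS followed streptavidin microbead enrichment, using low and high (top ~1%) gates for expression (anti-HA) and reagent binding (streptavidin). Colony PCR, MiSeq 2 × 250 sequencing and CDR-length filtering followed. Labels for polyreactivity reflect the gate of origin.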
In the case of “QVQLVESGRGLVQAGGSLRLSCAASGRIFSVNTMGWYRQAPGKERELVAGITGGGSTNYADSVKGRFTISRDNAKNTVYLQMNSLKPEDTAVYYCAAGWRSGFDYWGQGTQVTVSS”, the “polyreactivity (PSR sort gate)” value is reported as “high polyreactivity”. For “QVQLVESGRGLVQAGGSLRLSCAASGRTFRWYAMGWYRKAPGKERELVAAISGSGDRTYYADSVKGRFTISRDNAKNTVYLQMYSLKPVDTAVYYCYKAYLLYYTYARGDYWGQGTQVTVSS”, the “polyreactivity (PSR sort gate)” value was “high polyreactivity”. For “QVQLVESGRGLVQAGGSLRLSCAASGRTFYLYAMVWNIQAPGKERELVAAITFNGGSTYYADSVKGRFTISRDNAKNTVYLQMNSLKPEDTAVYYCAARLSKRSGYYYWGQVTQVTVSS”, the “polyreactivity (PSR sort gate)” value was “high polyreactivity”. In the case of “QVQLVESGRGLVQAGGSLRLSCAASGSIFTTNAMGWYRQAPGKERELVAAISKSGASTYYADSVKGRVTISRDNAKNTVYLQMNSLKPEDTAVYYCAAGLRYTGRFRFYYWGQGTQVTVSS”, the “polyreactivity (PSR sort gate)” value is reported as “high polyreactivity”. With “QVQLVESGRGLVQAGGSLRLSCAASGSTFATYAMGWYRQAPGKERELVAVITRGGRTYYADSVKGRFTISRDNAKNTVYLQMNSLKPEDNAVYYCAAKAYTYYARIGFDYWGQGTQVTVSS” the “polyreactivity (PSR sort gate)” value was “high polyreactivity”. For “QVQLVESGRGLVQAGGSLRLSCAASGSTFFDYAMGWYRQAPGKERELVATISWNGGSTYYADSVKGRFTISRDTATNTVYLQMNSLKPEDTAVYYCAKDRGYRYLGDYWGQGTQVSVSS”, the “polyreactivity (PSR sort gate)” value was “low polyreactivity”. In the case of “QVQLVESGRGLVQAGGSLRLSCAASGSTFGPYAMGWYRQAPGKEREFVAGISKSTSSTYYADSVKGRFTISRDNAKNTVYLQMNSLKPEDTAVYYCAAQGGRNRGYRYYWGQGTQVTVSS”, the “polyreactivity (PSR sort gate)” value is reported as “high polyreactivity”. With “QVQLVESGRGLVQAGGSLRLSCAASGSTFPKNAMGWYRQAPGKERELVASISSDGSTYYADSVKGRFTISRDNAKNTVYLQMNSLKPEDTAVYYCAAVLWEPPVHPGYDYWGQVTQVTVSS” the “polyreactivity (PSR sort gate)” value was “low polyreactivity”. For “QVQLVESGRGLVQAGGSLRLSCAASGSTFQSNAMGWYRQATGKERELVAAIDQSGGSTYYADSVKGRFTISRHNAKNTVYLQMNSLKPEDSAVYYCAAEYYYPQQPRKWYGYWGQGTQVTVSS”, the “polyreactivity (PSR sort gate)” value was “high polyreactivity”. In the case of “QVQLVESGRGLVQAGGSLRLSCAASGSTFVKYAMGWYRPAPGKERELVAAMNRSGASTYYADSVKGRFTISRDNAKNTVYLQMNSLKPEDTAVYYCAARFSWLGYYWGQGTQVTVSS”, the “polyreactivity (PSR sort gate)” value is reported as “high polyreactivity”. With “QVQLVESGRGLVQAGGSLRLSCAASGSTFYANTMGWYRQAPGKERELVAAISQSGGSTYYADSVKGRFTISRDNAKNTVYLQMNSLKPEDTAVYYCAARRLPRKERKLYYWGQGTQVTVSS” the “polyreactivity (PSR sort gate)” value was “high polyreactivity”. With “QVQLVESGRGLVQAGGSLRLSCAASGSTFYRYAMGWYRQAPGKERELVAGITGSGGRTYYADSVKGRFTISRDNAKNTVYLQMNSLKPEDTAVYYCNAYPSSSLFDYWGQGTQVTVSS” the “polyreactivity (PSR sort gate)” value was “low polyreactivity”. For “QVQLVESGRGLVQAGGSLRLSCAASGSTLYAYAMGWYRQAPGKESELVAAIRRGGRTNYADSVKGRFTISRDNAKNTVYLQMNSLKPEDTAVYYCAARGSKPYSNRLLDYWGLGTQVTVSS”, the “polyreactivity (PSR sort gate)” value was “high polyreactivity”. In the case of “QVQLVESGRGLVQAGGSLRLSCAASGSTRRYVMGWYRQAPGKERELVAVISRGGSTYYADSVKGRFTISRDNAKNSVYLQMNSLKPEDTAVYYCNGQPVIPRGGDYWGQATQVTVSS”, the “polyreactivity (PSR sort gate)” value is reported as “high polyreactivity”. In the case of “QVQLVESGRGLVQAGGSLRLSCAASGVIFSIYAMGWYRQAPGKERELVAAISTSGGSTYYADSVKGRFTISRDNAKNTVYLQMNRLKPEDTAVYYCNARRGFYWSWRGRYISGDYWGQGTQVTVSS”, the “polyreactivity (PSR sort gate)” value is reported as “high polyreactivity”. For “QVQLVESGRGLVQAGGSLRLSCAGSGSIFEGYVMGWSRQAPGKEMELVAAITSGGGSTYYADSVKGRFTSSRDNAKNTVYLQMISVKPVDTALYYCNAVYRWVYRSYEYWGQGTQGTVSS”, the “polyreactivity (PSR sort gate)” value was “high polyreactivity”. For “QVQLVESGRGLVQAGGSLRLSCASSGRIFARNAMGWYRKAPGQEREFVAAITFSGGSTYYAESVKGRFTISRDNAKNTVYLQMNSLKPEDTAVYYCAARSFDDWGQGTQVTVSS”, the “polyreactivity (PSR sort gate)” value was “high polyreactivity”. In the case of “QVQLVESGRGLVQAGGSLRLSCDSSGLTFTYNAMGWYRQAPGKERELVAVISYGGGSTYYADSVKGRFTISRDNAKNTVYLQMNSLNPEDNAVYYCAAVYGGYLYYYGGYAEYDYWGQGTQVTVSS”, the “polyreactivity (PSR sort gate)” value is reported as “low polyreactivity”. In the case of “QVQLVESGRGLVQAGGSLRLSFAASGITFGPNEMGWYRQAPGKERELVAAISKSGGTTYYADSVKGRFTISRDNAKNTDYLQMNSLKPEDTAVYYCAARCYPYYASFRYDYWGQGTQVTVSS”, the “polyreactivity (PSR sort gate)” value is reported as “high polyreactivity”. In the case of “QVQLVESGRGLVQAGGTLRLSCAASGSTFNKYAMGWYRQAPGKERELVAAIRSNGVRTYYADSVKVRLTISRDNAKNTVYLQMNSLNPEDTAVYYCNKRYTYRYDYWGQGTQVTVSS”, the “polyreactivity (PSR sort gate)” value is reported as “high polyreactivity”. For “QVQLVESGVALVQAAGSLRLRCAAYGSTFSYNAMGWYRQATGKERELVAAISGSGGTTYYADSVKGRFTISRDNAKNTVYLQMNSLKPEDTAVYYCAAELTRYRYFYHKRPMDYWGQGTQVTVSS”, the “polyreactivity (PSR sort gate)” value was “low polyreactivity”. In the case of “QVQLVESGVCLDQAGGSLRLSCAASGRTFDYNAMGWYSQAPGKERELVAAIDSDGSTNYADSVKGRFTISRDNAKNTVYLQMNSLKPEDTAVYYCAASTLVVWKPGWQVEYGYWGQGTQVTVSS”, the “polyreactivity (PSR sort gate)” value is reported as “low polyreactivity”. In the case of “QVQLVESGVCLVQAGGSLRLSCAASGRIFYNYAMGWYRQAPGKERELVADISSSGTLTYYSDSVKGRFTISRDNAKNTVYLHMNSLKPEDTAVYYCAARYWFRFQYDYWGQGTQLTVSS”, the “polyreactivity (PSR sort gate)” value is reported as “high polyreactivity”. For “QVQLVESGVGIVQAGGSLRLSCAASGFTFSSNAMGWYSQAPGKEREFVADISIIGGDTTYADSVKGRFTISRDNAKNTVYFQMNSLKAEDTADYYCIAKPPGWFWGGFSYNRYYYWGQGTQVTVSS”, the “polyreactivity (PSR sort gate)” value was “low polyreactivity”. For “QVQLVESGVGIVQAGGSLRLSCAASGRIFARNAMVWYRHAPGKERELVATIRVGGGSTYYADSVKGRFTISRDNAKNTVYLQMNSLKPEDTAVYYCAVRQLYSYPGDRRGYYWGQGTQVTVSS”, the “polyreactivity (PSR sort gate)” value was “low polyreactivity”. In the case of “QVQLVESGVGIVQAGGSLRLSCAASGRISYFNAMGWYRQAPGKERELVAAIRRSGGITYYADSVKGRFTISRDNAKNTVYLQMNSLKPEDTAVYYFATERYSWAERDFGYWGQGTLVTVSS”, the “polyreactivity (PSR sort gate)” value is reported as “low polyreactivity”. In the case of “QVQLVESGVGLDQAGGSLRLSCAASGSTFFVNAMGWYRQAPGKEMELVAAISTSGGRTYYADSVKGRFRISRDNAKNNLYLQMKSLKPEDTAVYYGAAVSLSGGYGEYDYWGQGTKVTVSS”, the “polyreactivity (PSR sort gate)” value is reported as “high polyreactivity”. In the case of “QVQLVESGVGLGQAGGSLRLSCAASGRTYWRYAMGWYRQAPGKETELVASINWNGGSTYYADSVKGRFTNSRDNAKNTVYLQMNSLKPEDTAVYYCAALRWPVYLFDYWGQGTQVTVSS”, the “polyreactivity (PSR sort gate)” value is reported as “high polyreactivity”. With “QVQLVESGVGLVQAGGILRLSCAASGSIFWPNAMGWYRHAPGKERELVAGISYSGGRTYYADSVKARFTISRDNEKNTVYLQMNSLKPEDTAVYYCTARRSSGYGYWGQGTHVTVSS” the “polyreactivity (PSR sort gate)” value was “high polyreactivity”. With “QVQLVESGVGLVQAGGSHRLSCSASGSIIEENSMGWYRQAPGKERELVAAITIGGRTNYADSVKGRFTISRDNAKNTVYLQMNSLKPEDTAVYYCAADLSSNKYFRFWTRYYYWGQGTQVTVSS” the “polyreactivity (PSR sort gate)” value was “low polyreactivity”.

From the nanobody polyreactivity screen of Harvey et al. (2022)
